Assay results from US20170051065A1 (Hoffmann-La Roche, published 2017).

Columns and labels:
[1] = target: human wildtype CSF-1R (wt CSF-1R) (human, UniProt P07333 20-972); experiment: cell-based or functional assay
[2] = target: human mutant CSF-1R L301S Y969F (human) (UniProt P07333); experiment: cell-based or functional assay

## goat polyclonal anti-CSF-1R antibody ab10676 (abcam)
[1]
  wtCSF-1R IC30 (cell viability of NIH3T3-CSF-1R spheroids, CellTiterGlo): 14.2 µg/mL
[2]
  Mutant CSF-1R IC30 (cell viability of NIH3T3 mutant CSF-1R spheroids, CellTiterGlo): > 20 µg/mL
  inhibition of cell viability at 20 µg/ml (mutant CSF-1R spheroids): 0%
